These are literature values, as cited in publication PMC9849996.

The series addresses ROS-GC1 (Bos taurus) (UniProt P55203). Put plainly: SPR; given as Ka. (In general: SPR reads the build-up and loss of mass on a sensor chip optically.)
UniProt P55203, sequence (P55203 57-1110): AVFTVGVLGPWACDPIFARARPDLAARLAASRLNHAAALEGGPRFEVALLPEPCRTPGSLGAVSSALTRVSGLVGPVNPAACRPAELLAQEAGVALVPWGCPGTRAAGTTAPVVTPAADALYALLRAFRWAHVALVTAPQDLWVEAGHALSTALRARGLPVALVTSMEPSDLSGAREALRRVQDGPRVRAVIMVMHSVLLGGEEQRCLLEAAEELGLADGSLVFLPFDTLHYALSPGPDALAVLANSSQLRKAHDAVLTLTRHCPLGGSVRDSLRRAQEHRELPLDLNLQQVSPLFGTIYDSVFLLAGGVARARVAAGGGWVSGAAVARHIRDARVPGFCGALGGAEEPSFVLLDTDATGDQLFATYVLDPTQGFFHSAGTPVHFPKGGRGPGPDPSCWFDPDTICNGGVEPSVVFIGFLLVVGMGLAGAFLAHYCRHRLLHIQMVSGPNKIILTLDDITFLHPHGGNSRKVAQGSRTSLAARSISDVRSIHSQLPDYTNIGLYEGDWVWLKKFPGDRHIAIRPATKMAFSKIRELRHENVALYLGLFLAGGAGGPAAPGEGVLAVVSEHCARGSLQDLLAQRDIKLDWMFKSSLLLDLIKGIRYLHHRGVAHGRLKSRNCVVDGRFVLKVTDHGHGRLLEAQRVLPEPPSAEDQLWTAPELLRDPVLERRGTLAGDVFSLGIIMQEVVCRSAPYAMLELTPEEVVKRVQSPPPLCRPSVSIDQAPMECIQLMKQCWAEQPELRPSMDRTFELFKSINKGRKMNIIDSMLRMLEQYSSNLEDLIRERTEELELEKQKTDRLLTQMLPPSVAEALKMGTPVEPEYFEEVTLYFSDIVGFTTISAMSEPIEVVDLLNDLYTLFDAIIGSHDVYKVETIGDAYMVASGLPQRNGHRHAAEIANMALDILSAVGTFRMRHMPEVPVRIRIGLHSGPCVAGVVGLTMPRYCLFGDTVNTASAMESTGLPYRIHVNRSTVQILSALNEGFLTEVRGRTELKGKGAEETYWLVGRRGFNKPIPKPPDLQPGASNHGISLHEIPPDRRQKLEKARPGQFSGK

Broadly, the Kd is the equilibrium constant for the complex coming apart. Turning to frequenin (from UniProt Q2V8Y7), the Kd is 426 nM.
